The text below walks through data of patent US20100166734A1 (published 2010).

The target in assay [1] is T1, human pIgR overexpressed in MDCK cells (human, UniProt P01833 19-764).
T1 construct: whole, on cells; also called hpIgR; human polymeric immunoglobulin receptor
The assay is described as follows: immunoprecipitation from cell lysates with His-tagged nanobodies on talon beads, blot with a-hSC.

The target in assay [2] is T2, ectodomain of human pIgR (R&D Systems Cat #2717-PG) (human, UniProt P01833 19-638).
T2 construct: extracellular domain; Immobilised on Maxisorp plates at 5 ug/ml; also called pIgR ectodomain
The assay is described as follows: competition ELISA, dilution series of purified Nanobody against 1 ug/ml IgA on immobilised pIgR ectodomain. In general terms: ELISA stands for enzyme-linked immunosorbent assay.

T2 sequence (P01833 19-638): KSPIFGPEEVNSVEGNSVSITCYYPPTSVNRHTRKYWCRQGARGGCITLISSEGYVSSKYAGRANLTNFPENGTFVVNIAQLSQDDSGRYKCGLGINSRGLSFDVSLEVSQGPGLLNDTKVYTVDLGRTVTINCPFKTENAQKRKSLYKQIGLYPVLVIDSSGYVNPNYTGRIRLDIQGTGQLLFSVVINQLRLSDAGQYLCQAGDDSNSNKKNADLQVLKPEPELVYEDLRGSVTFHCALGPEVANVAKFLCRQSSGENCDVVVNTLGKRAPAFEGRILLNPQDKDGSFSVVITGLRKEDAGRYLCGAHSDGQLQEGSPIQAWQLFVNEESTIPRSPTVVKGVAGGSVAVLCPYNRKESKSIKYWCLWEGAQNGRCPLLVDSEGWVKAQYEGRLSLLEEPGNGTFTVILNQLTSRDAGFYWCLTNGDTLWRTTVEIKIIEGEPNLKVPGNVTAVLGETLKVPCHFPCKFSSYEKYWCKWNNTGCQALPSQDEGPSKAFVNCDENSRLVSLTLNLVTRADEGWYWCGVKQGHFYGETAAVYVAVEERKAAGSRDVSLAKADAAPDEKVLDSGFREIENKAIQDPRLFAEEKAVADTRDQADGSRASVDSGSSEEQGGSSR
T1 sequence (P01833 19-764): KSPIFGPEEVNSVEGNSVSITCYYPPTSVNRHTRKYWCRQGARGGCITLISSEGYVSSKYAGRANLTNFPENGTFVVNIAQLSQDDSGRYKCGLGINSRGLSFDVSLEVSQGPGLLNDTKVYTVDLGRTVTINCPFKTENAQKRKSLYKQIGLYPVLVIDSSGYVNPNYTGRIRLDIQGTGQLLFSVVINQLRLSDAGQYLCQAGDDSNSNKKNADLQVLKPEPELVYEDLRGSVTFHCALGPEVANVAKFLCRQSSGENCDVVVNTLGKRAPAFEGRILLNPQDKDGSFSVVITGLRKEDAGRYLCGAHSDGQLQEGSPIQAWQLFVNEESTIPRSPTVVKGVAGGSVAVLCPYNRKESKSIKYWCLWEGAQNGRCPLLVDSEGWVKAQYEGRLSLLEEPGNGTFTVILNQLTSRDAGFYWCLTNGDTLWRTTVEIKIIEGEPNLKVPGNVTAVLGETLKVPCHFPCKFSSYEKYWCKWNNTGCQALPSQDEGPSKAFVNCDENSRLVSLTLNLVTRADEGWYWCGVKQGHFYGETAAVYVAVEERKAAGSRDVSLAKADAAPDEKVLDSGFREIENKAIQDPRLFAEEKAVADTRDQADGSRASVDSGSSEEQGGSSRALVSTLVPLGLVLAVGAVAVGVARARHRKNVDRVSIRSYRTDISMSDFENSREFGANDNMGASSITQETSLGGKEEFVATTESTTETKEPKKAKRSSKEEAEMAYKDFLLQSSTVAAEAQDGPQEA

B1: 1D7 (VHH)
VHH: EVQLVESGGGLVQSGGSLRLSCAASGRAFNYYAMGWFRQAPGKERELVAVINWSGGTTSYADSVKGRFTISRSNAKNTVYLQMSSLKPEDTAVYYCAADSIYRTSKDYNYWGQGTQVTVSS
notes: Carries myc and His tags (detected with anti-myc, pulled down on talon beads)
Take B1: the binding result in assay [1] and in assay [2] was “binds” each time.
